Measurements reported in patent US12723255B2, “Herbicide tolerance genes and methods of use thereof” (priority 2014, dated 2026).
Read-outs that look alike come from different tables or passages of the source.

Tests used:
[1] = kinetic analysis, non-endpoint assay at 23° C.; assay type: biochemical
Excerpt: For the fifth screen, recombinant protein for each of the eleven engineered proteins was produced and purified for an in-depth biochemical analysis. This biochemical analysis included: (1) kinetic analysis (Vmax and Km), (2) activity assays over a range of temperatures, (3) protein melting analysis, (4) activity on additional AOPP herbicides substrates, and (5) mass spectrometry analysis on peptides to confirm identity. The biochemical analyses were also done with purified recombinant wild-type protein and MON-HT55 protein for comparison. For the kinetic analysis, a non-endpoint assay was conducted at 23° C. with either quizalofop-P or 2,4-D as substrate. The recombinant proteins for these assays were produced in bacteria and purified using a 6-His tag fused at the C-terminal end of the protein. Results of the kinetic analysis with either quizalofop-P or 2,4-D as substrate are presented for ten of the engineered proteins, wild-type protein, and MON-HT55 protein in Table 7 (standard error is shown in parenthetical). Vmax is expressed as specific activity, umol herbicide product mg enzyme-1 min-1; Km expressed as mM herbicide substrate. […] The differentiation of the protein kinetics for MON-HTI and MON-HT7 were surprising because there are only four amino acid differences between MON-HT1 and MON-HT7. Specifically, MON-HT1 has the following amino acids at the indicated position: 182; F105; T112; and V273, and MON-HT7 has the following amino acids at the indicated position: L82; V105; S112; and A273.
Kinetic analysis using a non-endpoint assay was conducted at 23° C. with either quizalofop-P or 2,4-D as substrate, as detailed above for purified protein of the wild-type enzyme, MON-HT1, MON-HT13, MON-HT15, and MON-HT17.

[2] = assay type: physicochemical
Method: A protein melting analysis was also conducted. For the protein melting determinations, purified enzyme was added to 96-well microtiter plates in standard storage buffer (30 mM Tris pH7.5, 150 mM NaCl) with or without 50 uM Fe2+ and 1.0 mM aKG. Protein unfolding was then detected with SYPRO® orange protein gel stain (Invitrogen™ catalog #S6651, Life Technologies, Grand Island, NY) in a BioRad CFX96™ Real time PCR machine (BioRad, Hercules, CA) with readings taken between 10° C. to 95° C. in 0.5° C. steps. […] In contrast, 50 uM Fe2+ and 1.0 mM aKG had little effect on the stability of any of the engineered proteins. MON-HT55, MON-HT3, MON-HT4, MON-HT6, and MON-HT10 had melting temperatures in the range of 41° C. to 48° C., which is below the melting temperature of the wild-type enzyme. MON-HT1, MON-HT2, MON-HT5, MON-HT7, MON-HT8, and MON-HT9 had melting temperatures between 58° C. and 67° C., which is 8° C. to 17° C. higher than the wild-type enzyme. For MON-HT7 and MON-HT1, the difference in melting point was 11° C. in buffer without Fe2+ and aKG and 8° C. in buffer with Fe2+ and aKG. This was surprising since there are only four amino acid differences between the two enzymes.
A protein melting analysis was conducted as detailed above. The melting temperatures of MON-HT13, MON-HT15, and MON-HT17 was similar to the melting temperature of MON-HT1 with T1/2 in buffer in the range of 55-58° C., and with T1/2 in buffer plus Fe2+ and aKG in the range of 60-62° C.

[3] = enzyme activity assay at 23° C. with purified enzyme; assay type: biochemical; conditions: percentage of wild-type RdpA, set at 100%
Method: The enzyme activity of MON-HT protein variants with triclopyr, fluroxypyr, MCPA, MCPB, mecoprop, as substrates was determined using the enzyme activity assay conducted at 23° C. with purified enzyme. The activity was recorded as the maximum activity as a percentage of the wild-type RdpA enzyme's activity, which was set at 100%. […] The enzymatic activity with mecoprop as a substrate was reduced for each of the MON-HT1, MON-HT13, MON-HT15, and MON-HT17 variants compared to the wild-type RdpA enzyme. An unexpected result was that enzymatic activity with MCPA as a substrate was roughly 6-fold greater for MON-HT1, and approximately 10-fold greater for MON-HT13, MON-HT15, and MON-HT17 compared to the wild-type RdpA enzyme.

[4] = as above; assay type: biochemical; conditions: wild-type set at 100%
Method: The enzyme activity of MON-HT protein variants with haloxyfop, fenoxaprop, fluazifop, and dichlorprop as substrates was determined using the enzyme activity assay conducted at 23° C. with purified enzyme. The activity was recorded as the maximum activity as a percentage of the wild-type enzyme's activity, which was set at 100%.

[5] = assay type: biochemical; conditions: substrate quizalofop-P
Method: To analyze these engineered proteins for activity in higher temperatures, the in vitro enzyme assay in Example 1 was modified to specify pre-heating all of the assay components to the desired temperature for 5 minutes before combining the components and then maintaining the reaction at the desired temperature for the duration of the reaction. To normalize the assay measurements, quizalofop-P was used as the substrate for the reaction and enzyme activity was normalized based on the 25° C. readings. Using these parameters, the temperature at which the enzyme activity was half of maximum (T1/2) was calculated. The T1/2 for MON-HT55 was calculated to be 29° C., and the T1/2 for wild-type RdpA was calculated to be 38° C. (FIG. 2A).
Enzyme activity over a range of temperatures was analyzed in-depth for MON-HT1, MON-HT2, MON-HT7, and MON-HT8. These assays were conducted as described above. Quizalofop-P or 2,4-D was used as the substrate for these reactions and activity was normalized based on the activity of the wild-type enzyme at 25° C. The activity curves obtained are presented in FIG. 2B (with quizalofop-P as the substrate) and FIG. 2C (with 2,4-D as the substrate). Using quizalofop-P as the substrate, MON-HT55 was the most temperature sensitive, with a T1/2 of 29° C. […] MON-HTI was slightly less temperature sensitive, with a T1/2 about 1° C. higher than the wild-type enzyme.

B1: Wild-type RdpA: wild-type RdpA enzyme from Sphingobium herbicidovorans, SEQ ID NO:60 (protein)
chain: MHAALSPLSQRFERIAVQPLTGVLGAEITGVDLREPLDDSTWNEILDAFHTYQVIYFPGQAITNEQHIAFSRRFGPVDPVPLLKSIEGYPEVQMIRREANESGRVIGDDWHTDSTFLDAPPAAVVMRAIDVPEHGGDTGFLSMYTAWETLSPTMQATIEGLNVVHSATRVFGSLYQAQNRRFSNTSVKVMDVDAGDRETVHPLVVTHPGSGRKGLYVNQVYCQRIEGMTDAESKPLLQFLYEHATRFDFTCRVRWKKDQVLVWDNLCTMHRAVPDYAGKFRYLTRTTVGGVRPAR
modifications: Sphingobium herbicidovorans
- Vmax Quizalofop ([1]; 23° C., purified His-tagged protein, standard error in parenthetical): 1.38 (−0.06) umol herbicide product mg enzyme-1 min-1
- Km ([1]; 23° C., purified His-tagged protein, standard error in parenthetical, read-out: Km Quizalofop): 270 µM
- Vmax 2,4-D ([1]; Table 10 series, unit as defined): 0.25 (0.01) umol herbicide product mg enzyme-1 min-1
- Km ([1]; Table 10 series, unit as defined, read-out: Km 2,4-D): 130 µM
- Vmax Quizalofop ([1]; Table 10 series, 23° C., unit as defined): 2.76 (0.11) umol herbicide product mg enzyme-1 min-1
- Km ([1]; Table 10 series, 23° C., unit as defined, read-out: Km Quizalofop): 90 µM
- Vmax 2,4-D ([1]; standard error in parenthetical, NDB = activity not robust enough for kinetic characterization): 0.10 (−0.01) umol herbicide product mg enzyme-1 min-1
- Km ([1]; standard error in parenthetical, NDB = activity not robust enough for kinetic characterization, read-out: Km 2,4-D): 30 µM
- Melting temp, Buffer ([2]; Table 11 series): 43 °C
- Melting temp, Buffer plus Fe2+ and aKG ([2]; Table 11 series): 53 °C
- T1/2, temperature where 50% of the protein was unfolded, Buffer plus Fe2+ and aKG ([2]; buffer): 50 °C
- T1/2, temperature where 50% of the protein was unfolded, Buffer ([2]; buffer, pH 7.5): 42 °C
- MCPA Km [3]: 100%
- MCPA Vmax [3]: 100%
- Mecoprop Km [3]: 100%
- Mecoprop Vmax [3]: 100%
- maximum activity as a percentage of the wild-type enzyme's activity, Haloxyfop ([4]; purified enzyme): 100%
- maximum activity as a percentage of the wild-type enzyme's activity, Dichlorprop [4]: 100%
- maximum activity as a percentage of the wild-type enzyme's activity, Fenoxaprop [4]: 100%
- maximum activity as a percentage of the wild-type enzyme's activity, Fluazifop [4]: 100%
- activity of the wild-type enzyme at 46° C. and 47° C. [5]: completely inactive
- inactivation of the wild-type enzyme at 42° C. and 41° C. [5]: 90 % inactive
